B1: TP-210: 210-aa fragment of tau protein, amino acids 131-340 of tau 4R2N plus initiating methionine (SEQ ID NO:1) (protein, listed as Homo sapiens)
chain: MSKDGTGSDDKKAKGADGKTKIATPRGAAPPGQKGQANATRIPAKTPPAPKTPPSSGEPPKSGDRSGYSSPGSPGTPGSRSRTPSLPTPPTREPKKVAVVRTPPKSPSSAKSRLQTAPVPMPDLKNVKSKIGSTENLKHQPGGGKVQIINKKLDLSNVQSKCGSKDNIKHVPGGGSVQIVYKPVDLSKVTSKCGSLGNIHHKPGGGQVEVK
B2: TP-83: 83 amino acid truncated tau peptide, 4R2N 258-340 (SEQ ID NO:4) (protein, listed as Homo sapiens)
chain: MSKIGSTENLKHQPGGGKVQIINKKLDLSNVQSKCGSKDNIKHVPGGGSVQIVYKPVDLSKVTSKCGSLGNIHHKPGGGQVEVK
B3: TP-81: 81 amino acid truncated tau peptide, 4R2N 260-340 (SEQ ID NO:5) (protein, listed as Homo sapiens)
chain: MIGSTENLKHQPGGGKVQIINKKLDLSNVQSKCGSKDNIKHVPGGGSVQIVYKPVDLSKVTSKCGSLGNIHHKPGGGQVEVK
B4: TP-99: 99-amino acid fragment of tau 4R2N, amino acids 241-340, plus initiating methionine (SEQ ID NO:3) (protein)
chain: MRLQTAPVPMPDLKNVKSKIGSTENLKHQPGGGKVQIINKKLDLSNVQSKCGSKDNIKHVPGGGSVQIVYKPVDLSKVTSKCGSLGNIHHKPGGGQVEVK

Legend:
[1] = system: Tau 4R2N (amino acids 335-353) peptide substrate; experiment: Peptide digest HPLC assay of tau protease activity; assay type: biochemical, human; details: oligomerized truncated tau, 37° C., overnight (TP-210) or 44 hr (TP-99)
Excerpt: N-terminal sequencing of fragments using mass spectrometry identified autoproteolytic cut sites. In particular, cutting at the Lys340-Ser341 (340KS341) cut site occurred readily. Therefore, a 19-amino acid peptide corresponding to amino acids 335G to 353L of tau protein was synthesized that contained the KS cut site (340KS341). The reaction was monitored by reverse-phase high-pressure liquid chromatography (HPLC). […] An asterisk marks a non-specific contaminant that was used as a marker. […] 10 μg of tau peptide 335-353 ([…]) (SEQ ID NO:19) was custom synthesized by Genscript (Piscataway, N.J., USA) and 1 mg was dissolved in 1 mL of buffer (25 mM Tris-HCl pH 7.4). […] 32Karat™ LC-CE System, Beckman Coulter, Inc., (Indianapolis, Ind.)] using a linear gradient of acetonitrile in 0.1% TFA 0-60% acetonitrile on an analytical C18 column (12.5 cm×2.1 mm, 5 μm, (Supelco, Bellefonte, Pa., USA). 30 μg of peptide was incubated without tau protease as a negative control and analyzed with the same method;
Cleavage of the peptide substrate for tau protease, Tau 4R2N (amino acids 335-353) […] (SEQ ID NO.19), was used to monitor activity using reverse-phase HPLC. […] The large peak in the lower trace indicated intact peptide was greatly diminished in the upper trace and replaced with two smaller peaks F1 and F2 that represent fragments generated by TP-210. […]

[2] = Tau protease enzymatic activity of truncated tau peptides (general statement); assay type: biochemical
[3] = system: tau FRET peptide; experiment: FRET assay of tau protease activity; assay type: biochemical; details: 10, 25 or 50 μg oligomerized protein, 2.5 μg FRET peptide, 17 hrs at 37° C.
Excerpt: The FRET assay peptide substrate is composed of nine amino acids surrounding the autoproteolytic cut site after Lys 340 in tau 4R2N with the fluorescent molecule methylcoumarin (MCA) at the amino terminus and the fluorescence quenching molecule dinitrophenol (DNP) at the C-terminus using an additional Lys at the C-terminus to conjugate it to the peptide: MCA-[…]-{Lys(DNP} (SEQ ID NO:18). The concept is that when tau protease cuts the peptide the quench is dissociated from the fluor such that there is a detectable increase in the fluorescence signal in the assay. This assay can be used to monitor tau protease activity to screen small molecule compounds, peptides or antibodies that modulate tau protease activity. This assay can also be used to characterize enzyme kinetics and optimize the buffer conditions for tau protease. […]
A FRET assay was conducted to determine if the Tau 4R2N 260-340 construct has protease activity using the tau FRET peptide described in FIG. 22 and FIG. 23. […] To determine the background values for the wells of the 96-well plate 95 microliter of buffer was added to the wells of a black 96-well Microfluor I plate (ThermoFisher Scientific) and an EnVision plate reader was used to determine signal (as described in FIG. 23). 5 μL of each sample was mixed with the buffer in the wells and the signal was determined. […]

Row | Molecule | protease activity on tau peptide 335-353 (HPLC) [1] | tau protease enzymatic activity [2] | cutting of tau FRET peptide [3]
1 | B1 | retained proteolytic activity | retain tau protease enzymatic activity | 
2 | B2 |  | retain tau protease enzymatic activity | 
3 | B3 |  | retain tau protease enzymatic activity | cuts tau FRET peptide
4 | B4 | showed protease activity | retain tau protease enzymatic activity | 
